Results reported in publication PMC7865249.

Tests used:
[1] = molecular target: H111A HupZ-V5-His6 (Streptococcus pyogenes (Group A Streptococcus)); assay: SEC; ligand-free protein, 200 uM, 1 mL injected; Superdex Increase 200 10/300 GL, 20 mM Tris-HCl, 50 mM NaCl, pH 7.4, 0.4 mL/min; mass from a calibration curve of standards
[2] = molecular target: H111A HupZ-V5-His6 (Streptococcus pyogenes (Group A Streptococcus)); assay: SEC; protein reconstituted with 1.2 eq hemin and desalted, 200 uM, 1 mL injected; Superdex Increase 200 10/300 GL, 20 mM Tris-HCl, 50 mM NaCl, pH 7.4, 0.4 mL/min; mass from a calibration curve of standards
[3] = molecular target: HupZ-V5-His6 (heme utilization protein Z with a C-terminal V5-His6 tag) (Streptococcus pyogenes (Group A Streptococcus)); assay: SEC; ligand-free protein, 200 uM, 1 mL injected; Superdex Increase 200 10/300 GL, 20 mM Tris-HCl, 50 mM NaCl, pH 7.4, 0.4 mL/min; mass from a calibration curve of standards
[4] = molecular target: HupZ-V5-His6 (heme utilization protein Z with a C-terminal V5-His6 tag) (Streptococcus pyogenes (Group A Streptococcus)); assay: SEC; protein reconstituted with 1.2 eq hemin and desalted, 200 uM, 1 mL injected; Superdex Increase 200 10/300 GL, 20 mM Tris-HCl, 50 mM NaCl, pH 7.4, 0.4 mL/min; mass from a calibration curve of standards

Substance: H111A HupZ-V5-His6 (natural protein)
- stoichiometry N [1]: 2
- stoichiometry N [2]: 2

Substance: HupZ-V5-His6 (heme utilization protein Z with a C-terminal V5-His6 tag) (natural protein)
- stoichiometry N [3]: 2
- stoichiometry N [4]: 2
